Results as given in patent US20140128287, “SYSTEMS FOR INDUCTION OF GENE EXPRESSION AND PROTEIN DEPLETION IN YEAST” (THE TRUSTEES OF PRINCETON UNIVERSITY, published 2014).

How the values were obtained:
[1] = biological target: 4ZEV (designed four zinc finger - estrogen receptor - VP16 activator) (synthetic construct); assay: cell_activity; yeast reporter, modified GAL1 promoter, 15 min after beta-estradiol; details: tags: 4Z DBD replaces Gal4 DBD of GEV
[2] = biological target: ZEV (Zif268 zinc fingers - estrogen receptor - VP16 activator) (synthetic construct, UniProt P18146 SEQ:1-87); assay: as above

B1: 4Z in vivo target (three pairs of sites) (dsDNA)
DNA 1: GCGGCGGAGGAGTGCGGCGGAGGAGGAGCGGCGGAGGAGTGCGGCGGAGGAGGAGCGGCGGAGGAGTGCGGCGGAGGAG
DNA 2: CTCCTCCGCCGCACTCCTCCGCCGCTCCTCCTCCGCCGCACTCCTCCGCCGCTCCTCCTCCGCCGCACTCCTCCGCCGC
activity [1]: > 50 fold induction of GFP transcripts

B2: Zif in vivo target (three pairs of sites) (dsDNA)
DNA 1: GCGTGGGCGTGCGTGGGCGGGCGTGGGCGTGCGTGGGCGGGCGTGGGCGTGCGTGGGCG
DNA 2: CGCCCACGCACGCCCACGCCCGCCCACGCACGCCCACGCCCGCCCACGCACGCCCACGC
activity [2]: > 50 fold induction of GFP transcripts
